Here are results for five molecules from publication PMC9279507.

For this assay, the target named is T1, 6XHis-tagged TgIST-R2 (G365-S420).
T1 chain: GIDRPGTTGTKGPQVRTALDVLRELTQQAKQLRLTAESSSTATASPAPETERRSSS
Put plainly: nickel affinity copurification, SDS-PAGE, Coomassie blue band quantification. The conditions noted are these: chain shown with the change;; parent: est. 1.0; read off a plot.

B1: STAT1cc (STAT1 core fragment, A656C and N658C, locked dimer), tag-free, P42224 E618A (protein)
chain: MSQWYELQQLDSKFLEQVHQLYDDSFPMEIRQYLAQWLEKQDWEHAANDVSFATIRFHDLLSQLDDQYSRFSLENNFLLQHNIRKSKRNLQDNFQEDPIQMSMIIYSCLKEERKILENAQRFNQAQSGNIQSTVMLDKQKELDSKVRNVKDKVMCIEHEIKSLEDLQDEYDFKCKTLQNREHETNGVAKSDQKQEQLLLKKMYLMLDNKRKEVVHKIIELLNVTELTQNALINDELVEWKRRQQSACIGGPPNACLDQLQNWFTIVAESLQQVRQQLKKLEELEQKYTYEHDPITKNKQVLWDRTFSLFQQLIQSSFVVERQPCMPTHPQRPLVLKTGVQFTVKLRLLVKLQELNYNLKVKVLFDKDVNERNTVKGFRKFNILGTHTKVMNMEESTNGSLAAEFRHLQLKEQKNAGTRTNEGPLIVTEELHSLSFETQLCQPGLVIDLETTSLPVVVISNVSQLPSGWASILWYNMLVAEPRNLSFFLTPPCARWAQLSEVLSWQFSSVTKRGLNVDQLNMLGEKLLGPNASPDGLIPWTRFCKENINDKNFPFWLWIESILELIKKHLLPLWNDGCIMGFISKERERALLKDQQPGTFLLRFSESSREGAITFTWVARSQNGGEPDFHAVEPYTKKELSAVTFPDIIRNYKVMAAENIPENPLKYLYPNIDKDHAFGKYYSRPKEAPEPMELDGPKGTGYIKTELISVSEVHPSRLQTTDNLLPMSPEEFDEVSRIVGSVEFDSMMNTV
Consider B1, for which the ratio to parent stood at 0.82.

B2: STAT1cc (STAT1 core fragment, A656C and N658C, locked dimer), tag-free, P42224 Q621W (protein)
chain: MSQWYELQQLDSKFLEQVHQLYDDSFPMEIRQYLAQWLEKQDWEHAANDVSFATIRFHDLLSQLDDQYSRFSLENNFLLQHNIRKSKRNLQDNFQEDPIQMSMIIYSCLKEERKILENAQRFNQAQSGNIQSTVMLDKQKELDSKVRNVKDKVMCIEHEIKSLEDLQDEYDFKCKTLQNREHETNGVAKSDQKQEQLLLKKMYLMLDNKRKEVVHKIIELLNVTELTQNALINDELVEWKRRQQSACIGGPPNACLDQLQNWFTIVAESLQQVRQQLKKLEELEQKYTYEHDPITKNKQVLWDRTFSLFQQLIQSSFVVERQPCMPTHPQRPLVLKTGVQFTVKLRLLVKLQELNYNLKVKVLFDKDVNERNTVKGFRKFNILGTHTKVMNMEESTNGSLAAEFRHLQLKEQKNAGTRTNEGPLIVTEELHSLSFETQLCQPGLVIDLETTSLPVVVISNVSQLPSGWASILWYNMLVAEPRNLSFFLTPPCARWAQLSEVLSWQFSSVTKRGLNVDQLNMLGEKLLGPNASPDGLIPWTRFCKENINDKNFPFWLWIESILELIKKHLLPLWNDGCIMGFISKERERALLKDQQPGTFLLRFSESSREGAITFTWVERSWNGGEPDFHAVEPYTKKELSAVTFPDIIRNYKVMAAENIPENPLKYLYPNIDKDHAFGKYYSRPKEAPEPMELDGPKGTGYIKTELISVSEVHPSRLQTTDNLLPMSPEEFDEVSRIVGSVEFDSMMNTV
Consider B2, for which the ratio to parent amounted to 1.1.

B3: STAT1cc (STAT1 core fragment, A656C and N658C, locked dimer), tag-free, P42224 Q621A (protein)
chain: MSQWYELQQLDSKFLEQVHQLYDDSFPMEIRQYLAQWLEKQDWEHAANDVSFATIRFHDLLSQLDDQYSRFSLENNFLLQHNIRKSKRNLQDNFQEDPIQMSMIIYSCLKEERKILENAQRFNQAQSGNIQSTVMLDKQKELDSKVRNVKDKVMCIEHEIKSLEDLQDEYDFKCKTLQNREHETNGVAKSDQKQEQLLLKKMYLMLDNKRKEVVHKIIELLNVTELTQNALINDELVEWKRRQQSACIGGPPNACLDQLQNWFTIVAESLQQVRQQLKKLEELEQKYTYEHDPITKNKQVLWDRTFSLFQQLIQSSFVVERQPCMPTHPQRPLVLKTGVQFTVKLRLLVKLQELNYNLKVKVLFDKDVNERNTVKGFRKFNILGTHTKVMNMEESTNGSLAAEFRHLQLKEQKNAGTRTNEGPLIVTEELHSLSFETQLCQPGLVIDLETTSLPVVVISNVSQLPSGWASILWYNMLVAEPRNLSFFLTPPCARWAQLSEVLSWQFSSVTKRGLNVDQLNMLGEKLLGPNASPDGLIPWTRFCKENINDKNFPFWLWIESILELIKKHLLPLWNDGCIMGFISKERERALLKDQQPGTFLLRFSESSREGAITFTWVERSANGGEPDFHAVEPYTKKELSAVTFPDIIRNYKVMAAENIPENPLKYLYPNIDKDHAFGKYYSRPKEAPEPMELDGPKGTGYIKTELISVSEVHPSRLQTTDNLLPMSPEEFDEVSRIVGSVEFDSMMNTV
Turning to B3, the ratio to parent was 0.87.

B4: STAT1cc (STAT1 core fragment, A656C and N658C, locked dimer), tag-free, P42224 N662K (protein)
chain: MSQWYELQQLDSKFLEQVHQLYDDSFPMEIRQYLAQWLEKQDWEHAANDVSFATIRFHDLLSQLDDQYSRFSLENNFLLQHNIRKSKRNLQDNFQEDPIQMSMIIYSCLKEERKILENAQRFNQAQSGNIQSTVMLDKQKELDSKVRNVKDKVMCIEHEIKSLEDLQDEYDFKCKTLQNREHETNGVAKSDQKQEQLLLKKMYLMLDNKRKEVVHKIIELLNVTELTQNALINDELVEWKRRQQSACIGGPPNACLDQLQNWFTIVAESLQQVRQQLKKLEELEQKYTYEHDPITKNKQVLWDRTFSLFQQLIQSSFVVERQPCMPTHPQRPLVLKTGVQFTVKLRLLVKLQELNYNLKVKVLFDKDVNERNTVKGFRKFNILGTHTKVMNMEESTNGSLAAEFRHLQLKEQKNAGTRTNEGPLIVTEELHSLSFETQLCQPGLVIDLETTSLPVVVISNVSQLPSGWASILWYNMLVAEPRNLSFFLTPPCARWAQLSEVLSWQFSSVTKRGLNVDQLNMLGEKLLGPNASPDGLIPWTRFCKENINDKNFPFWLWIESILELIKKHLLPLWNDGCIMGFISKERERALLKDQQPGTFLLRFSESSREGAITFTWVERSQNGGEPDFHAVEPYTKKELSAVTFPDIIRNYKVMAAENIPEKPLKYLYPNIDKDHAFGKYYSRPKEAPEPMELDGPKGTGYIKTELISVSEVHPSRLQTTDNLLPMSPEEFDEVSRIVGSVEFDSMMNTV
As to B4, the ratio to parent amounted to 0.26.

B5: STAT1cc (STAT1 core fragment, A656C and N658C, locked dimer), tag-free, P42224 D593A (protein)
chain: MSQWYELQQLDSKFLEQVHQLYDDSFPMEIRQYLAQWLEKQDWEHAANDVSFATIRFHDLLSQLDDQYSRFSLENNFLLQHNIRKSKRNLQDNFQEDPIQMSMIIYSCLKEERKILENAQRFNQAQSGNIQSTVMLDKQKELDSKVRNVKDKVMCIEHEIKSLEDLQDEYDFKCKTLQNREHETNGVAKSDQKQEQLLLKKMYLMLDNKRKEVVHKIIELLNVTELTQNALINDELVEWKRRQQSACIGGPPNACLDQLQNWFTIVAESLQQVRQQLKKLEELEQKYTYEHDPITKNKQVLWDRTFSLFQQLIQSSFVVERQPCMPTHPQRPLVLKTGVQFTVKLRLLVKLQELNYNLKVKVLFDKDVNERNTVKGFRKFNILGTHTKVMNMEESTNGSLAAEFRHLQLKEQKNAGTRTNEGPLIVTEELHSLSFETQLCQPGLVIDLETTSLPVVVISNVSQLPSGWASILWYNMLVAEPRNLSFFLTPPCARWAQLSEVLSWQFSSVTKRGLNVDQLNMLGEKLLGPNASPDGLIPWTRFCKENINDKNFPFWLWIESILELIKKHLLPLWNDGCIMGFISKERERALLKAQQPGTFLLRFSESSREGAITFTWVERSQNGGEPDFHAVEPYTKKELSAVTFPDIIRNYKVMAAENIPENPLKYLYPNIDKDHAFGKYYSRPKEAPEPMELDGPKGTGYIKTELISVSEVHPSRLQTTDNLLPMSPEEFDEVSRIVGSVEFDSMMNTV
As for B5, the ratio to parent was 0.9.
